For the assay, the target named is T1, S. gordonii SecY2-Asp4-Asp5 complex (S. gordonii) (UniProt A8AWV0).
T1 sequence 1: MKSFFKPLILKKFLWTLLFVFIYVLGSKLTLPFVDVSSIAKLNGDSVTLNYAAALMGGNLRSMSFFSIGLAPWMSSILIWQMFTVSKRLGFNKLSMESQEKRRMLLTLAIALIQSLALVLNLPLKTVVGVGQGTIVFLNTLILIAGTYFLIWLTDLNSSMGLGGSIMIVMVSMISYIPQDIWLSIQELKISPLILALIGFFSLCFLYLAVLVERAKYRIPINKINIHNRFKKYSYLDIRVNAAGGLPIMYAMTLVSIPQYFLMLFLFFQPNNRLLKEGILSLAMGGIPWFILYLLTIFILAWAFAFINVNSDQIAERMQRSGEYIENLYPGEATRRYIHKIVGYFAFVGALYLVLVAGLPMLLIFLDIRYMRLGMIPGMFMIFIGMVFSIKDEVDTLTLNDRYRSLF
T1 sequence 2: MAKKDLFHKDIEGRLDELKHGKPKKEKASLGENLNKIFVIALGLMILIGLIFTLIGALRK
T1 sequence 3: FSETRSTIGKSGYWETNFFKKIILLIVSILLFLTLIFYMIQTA

Regarding “E. coli SecA (from UniProt P10408 1-901) (enzyme)”, the steady-state ATPase activity of 0.3 uM E. coli SecA on addition of 0.46 uM SecY2-Asp4-Asp5 in proteoliposomes, 25 C (SecA alone ~0.02 s^-1) was 0.072 s⁻¹.

B1: S. gordonii SecA2 with a C-terminal His6 tag (enzyme)
chain: MVKNFFHIRRLKKILAKIKSFEKEMSSLSDLDLQKKTDEFKKRLADGENLDQLLPEAYAVVREVDKRILGLFPYDVQVMGAIVLHEGNIAEMATGEGKTLTATMPLYLNALSGQGAMLVTPNSYLALRDAKEMGPVYRFLGLTIETAVRADESKPLETKEKRRIYQADIIYTTNSALGFDYLIENLAENKKNQFLREFNYVIIDEIDSILLDSAQTPLIISGAPRVQSNFYDMMNTLVQTLYEDEDYCYDDEKNEVWLTQKGIRAAESFLGLNHLFSKENQELVRHLNLALRAHMVYKKDQDYVVRQSENEAEVVLLDRATGRLMELTRLQGGQHQAIEAKEHVKLTQETRAMASITYQNLFKLFRKLSGMTGTGKVVESEFLETYSMSVVKIPTNCPVIRRDYPDQIYQTLPEKVFASLDEVKHYHAKGNPLLIFTGSVEMSEIYSSLLLREGIAHNLLNANNVAREAQMIAESGQLGAVTVATSMAGRGTDIKLGPGVADLGGLVVIGTERMENHRIDLQIRGRSGRQGDPGISKFFISLEDDLLKKWGPDWIKNFYRDYSPEDFKNNPILLKQRRFKKLVSKAQKASEGNAKLSRRLTLEYAQSMKIQRELTYAERNRLLEDTNEMEEEINRVIEYVIKQVAYEQSFENRADFYRFILHHFSNRAERIPQEFDIHSPKEVSHLLQAIAEQELLAKKSYLKSDKLYSQFQRLAILKAIDENWVEQVDYLQQLKSALSGFHTSNKKPIVEYYQEAYDGFEYMKERMKHQIVKNLLMSELALNPKGEVVMYFP
On to B1, for which the steady-state ATPase activity of 0.3 uM S. gordonii SecA2 on addition of 0.46 uM SecY2-Asp4-Asp5 in proteoliposomes, 25 C (SecA2 alone ~0.01 s^-1; 4-fold increase) is 0.044 s⁻¹.

Source of the values: article PMC5076819.
